Data reported in publication PMC8096850, “Structure of the full-length human Pannexin1 channel and insights into its role in pyroptosis” (Cell Discovery, 2021).

B1: human Pannexin1 (hPANX1): N255Q (protein)
parent chain: MAIAQLATEYVFSDFLLKEPTEPKFKGLRLELAVDKMVTCIAVGLPLLLISLAFAQEISIGTQISCFSPSSFSWRQAAFVDSYCWAAVQQKNSLQSESGNLPLWLHKFFPYILLLFAILLYLPPLFWRFAAAPHICSDLKFIMEELDKVYNRAIKAAKSARDLDMRDGACSVPGVTENLGQSLWEVSESHFKYPIVEQYLKTKKNSNNLIIKYISCRLLTLIIILLACIYLGYYFSLSSLSDEFVCSIKSGILRNDSTVPDQFQCKLIAVGIFQLLSVINLVVYVLLAPVVVYTLFVPFRQKTDVLKVYEILPTFDVLHFKSEGYNDLSLYNLFLEENISEVKSYKCLKVLENIKSSGQGIDPMLLLTNLGMIKMDVVDGKTPMSAEMREEQGNQTAELQGMNIDSETKANNGEKNARQRLLDSSC
B2: full-length human Pannexin1 with a Strep-tag II inserted after V172 (natural protein, UniProt Q96RD7 1-426, looked up)
chain: B1 parent chain
modifications: N-linked glycan at N255 (two N-acetylglucosamine and eight mannose)
notes: Pannexin1 (PANX1), Homo sapiens, full length; Homo-heptamer; Met1 is absent from the deposited hPANX1-MD model; The termini and the intracellular linker of the model rest on a locally sharpened map and MD flexible fitting; also called hPANX1; PANX1

Key:
[1] = STED immunofluorescence, THP-1-derived macrophages; conditions: glycan lost; control: overexpressed WT hPANX1
[2] = target: the molecule itself; assay: cryo-EM structure; single-particle cryo-EM of purified hPANX1 at about 8 mg/ml in 20 mM Hepes pH 7.4, 150 mM NaCl, 0.1% digitonin; C7 symmetry; 3.15 Å

| Protein | localisation_or_trafficking [1] | stoichiometry N [2] |
| --- | --- | --- |
| B1 | changes | – |
| B2 | – | 7 |
